# Assay results reported in the supplement of paper PMC11246515.
# ± gives the standard deviation of the averaged measurements.
# Assay: total protein half-life in vivo (active degradation + dilution); higher = more stable protein
# [1] = E. coli NCM3722 delta-clpP delta-lon delta-hslV, growth: N-lim chemostat, doubling time 6 h
# [2] = E. coli NCM3722 delta-clpP, growth: N-lim chemostat, doubling time 6 h
# [3] = E. coli NCM3722 delta-hslV, growth: N-lim chemostat, doubling time 6 h
# [4] = E. coli NCM3722 delta-lon, growth: N-lim chemostat, doubling time 6 h
# [5] = E. coli NCM3722 delta-smpB, growth: N-lim chemostat, doubling time 6 h
# [6] = wild type E. coli NCM3722, growth: C-lim chemostat, doubling time 3 h
# [7] = wild type E. coli NCM3722, growth: C-lim chemostat, doubling time 12 h
# [8] = wild type E. coli NCM3722, growth: N-lim chemostat, doubling time 6 h
# [9] = wild type E. coli NCM3722, growth: N-lim chemostat, doubling time 12 h
# [10] = wild type E. coli NCM3722, growth: P-lim chemostat, doubling time 6 h
# [11] = wild type E. coli NCM3722, growth: P-lim chemostat, doubling time 12 h
# [12] = wild type E. coli NCM3722, growth: C-lim chemostat, doubling time 6 h
Sequence,total protein half-life in vivo [1],total protein half-life in vivo [2],total protein half-life in vivo [3],total protein half-life in vivo [4],total protein half-life in vivo [5],total protein half-life in vivo [6],total protein half-life in vivo [7],total protein half-life in vivo [8],total protein half-life in vivo [9],total protein half-life in vivo [10],total protein half-life in vivo [11],total protein half-life in vivo [12]
MKESNSRREFLSQSGKMVTAAALFGTSVPLAHAAVAGTLNCEANNTMKITDPHYYLDNVLLETGFDYENGVAVQTRTARQTVEIQDGKIVALRENKLHPDATLPHYDAGGKLMLPTTRDMHIHLDKTFYGGPWRSLNRPAGTTIQDMIKLEQKMLPELQPYTQERAEKLIDLLQSKGTTIARSHCNIEPVSGLKNLQNLQAVLARRQAGFECEIVAFPQHGLLLSKSEPLMREAMQAGAHYVGGLDPTSVDGAMEKSLDTMFQIALDYDKGVDIHLHETTPAGVAAINYMVETVEKTPQLKGKLTISHAFALATLNEQQVDELANRMVVQQISIASTVPIGTLHMPLKQLHDKGVKVMTGTDSVIDHWSPYGLGDMLEKANLYAQLYIRPNEQNLSRSLFLATGDVLPLNEKGERVWPKAQDDASFVLVDASCSAEAVARISPRTATFHKGQLVWGSVAG,4.64 ± 0.15 h,4.34 ± 0.53 h,4.51 ± 0.31 h,4.82 ± 0.11 h,3.937 ± 0.008 h,3.21 ± 0.41 h,9.95 ± 0.62 h,4.32 ± 0.17 h,6.843 ± 0.056 h,5.67 ± 0.43 h,11.53 ± 0.036 h,–
MKFELDTTDGRARRGRLVFDRGVVETPCFMPVGTYGTVKGMTPEEVEATGAQIILGNTFHLWLRPGQEIMKLHGDLHDFMQWKGPILTDSGGFQVFSLGDIRKITEQGVHFRNPINGDPIFLDPEKSMEIQYDLGSDIVMIFDECTPYPADWDYAKRSMEMSLRWAKRSRERFDSLGNKNALFGIIQGSVYEDLRDISVKGLVDIGFDGYAVGGLAVGEPKADMHRILEHVCPQIPADKPRYLMGVGKPEDLVEGVRRGIDMFDCVMPTRNARNGHLFVTDGVVKIRNAKYKSDTGPLDPECDCYTCRNYSRAYLHHLDRCNEILGARLNTIHNLRYYQRLMAGLRKAIEEGKLESFVTDFYQRQGREVPPLNVD [P0A847],5.511 ± 0.011 h,5.15 ± 0.27 h,4.74 ± 0.42 h,–,4.12 ± 0.42 h,3.176 ± 0.02 h,10.9 ± 0.33 h,5.08 ± 0.26 h,9.05 ± 0.3 h,6.03 ± 0.7 h,13.7 ± 1.2 h,6.4 ± 0.068 h
MKFIGKLLLYILIALLVAIAGLYFLLQTRWGAEHISAWVSENSDYHLAFGAMDHRFSAPSHIVLENVTFGRDGQPATLVAKSVDIALSSRQLTEPRHVDTILLENGTLNLTDQTAPLPFKADRLQLRDMAFNSPNSEWKLSAQRVNGGVVPWSPKAGKVLGTKAQIQFSAGSLSLNDVPATNVLIEGSIDNDRVTLTNLGADIARGTLTGNAQRNADGSWQVENLRMADIRLQSEKSLTDFFAPLRSVPSLQIGRLEVIDARLQGPDWAVTDLDLSLRNMTFSKDDWQTQEGKLSMNASEFIYGSLHLFDPIINTEFSPQGVALRQFTSRWEGGMVRTSGNWLRDGKTLILDDAAIAGLEYTLPKNWQQLWMETTPGWLNSLQLKRFSASRNLIIDIDPDFPWQLTALDGYGANLTLVTDHKWGVWSGSANLNAAAATFNRVDVRRPSLALTANSSTVNISELSAFTEKGILEATASVSQTPQRQTHISLNGRGVPVNILQQWGWPELPLTGDGNIQLTASGDIQANVPLKPTVSGQLHAVNAAKQQVTQTMNAGIVSSGEVTSTEPVR,6.81 ± 0.67 h,6.85 ± 0.84 h,6.19 ± 0.067 h,6.3 ± 0.072 h,6.28 ± 0.42 h,3.2 ± 0.15 h,11.4 ± 1 h,6.16 ± 0.12 h,12.6 ± 0.84 h,6.26 ± 0.23 h,12 ± 0.2 h,5.9 ± 0.12 h
MKFIIKLFPEITIKSQSVRLRFIKILTGNIRNVLKHYDETLAVVRHWDNIEVRAKDENQRLAIRDALTRIPGIHHILEVEDVPFTDMHDIFEKALVQYRDQLEGKTFCVRVKRRGKHDFSSIDVERYVGGGLNQHIESARVKLTNPDVTVHLEVEDDRLLLIKGRYEGIGGFPIGTQEDVLSLISGGFDSGVSSYMLMRRGCRVHYCFFNLGGAAHEIGVRQVAHYLWNRFGSSHRVRFVAINFEPVVGEILEKIDDGQMGVILKRMMVRAASKVAERYGVQALVTGEALGQVSSQTLTNLRLIDNVSDTLILRPLISYDKEHIINLARQIGTEDFARTMPEYCGVISKSPTVKAVKSKIEAEEEKFDFSILDKVVEEANNVDIREIAQQTEQEVVEVETVNGFGPNDVILDIRSIDEQEDKPLKVEGIDVVSLPFYKLSTKFGDLDQNKTWLLWCERGVMSRLQALYLREQGFNNVKVYRP,4.16 ± 1 h,2.72 ± 0.25 h,2.86 ± 0.2 h,3.57 ± 0.082 h,2.827 ± 0.0041 h,3 ± 0.2 h,7.48 ± 0.32 h,2.952 ± 0.021 h,3.99 ± 0.086 h,5.66 ± 1.4 h,8.76 ± 0.25 h,4.62 ± 0.53 h
MKFKVIALAALMGISGMAAQANELPDGPHIVTSGTASVDAVPDIATLAIEVNVAAKDAATAKKQADERVAQYISFLELNQIAKKDISSANLRTQPDYDYQDGKSILKGYRAVRTVEVTLRQLDKLNSLLDGALKAGLNEIRSVSLGVAQPDAYKDKARKAAIDNAIHQAQELANGFHRKLGPVYSVRYHVSNYQPSPMVRMMKADAAPVSAQETYEQAAIQFDDQVDVVFQLEPVDQQPAKTPAAQ [P0ADS6],6.45 ± 0.46 h,6.67 ± 0.7 h,–,6.77 ± 1.2 h,5.98 ± 0.096 h,3.2 ± 0.14 h,12.1 ± 1.4 h,5.83 ± 0.65 h,12.1 ± 1.2 h,5.59 ± 0.14 h,11.7 ± 0.76 h,5.88 ± 0.43 h
MKFPGKRKSKHYFPVNARDPLLQQFQPENETSAAWVVGIDQTLVDIEAKVDDEFIERYGLSAGHSLVIEDDVAEALYQELKQKNLITHQFAGGTIGNTMHNYSVLADDRSVLLGVMCSNIEIGSYAYRYLCNTSSRTDLNYLQGVDGPIGRCFTLIGESGERTFAISPGHMNQLRAESIPEDVIAGASALVLTSYLVRCKPGEPMPEATMKAIEYAKKYNVPVVLTLGTKFVIAENPQWWQQFLKDHVSILAMNEDEAEALTGESDPLLASDKALDWVDLVLCTAGPIGLYMAGFTEDEAKRKTQHPLLPGAIAEFNQYEFSRAMRHKDCQNPLRVYSHIAPYMGGPEKIMNTNGAGDGALAALLHDITANSYHRSNVPNSSKHKFTWLTYSSLAQVCKYANRVSYQVLNQHSPRLTRGLPEREDSLEESYWDR [P0AEW6],4.78 ± 0.21 h,5.5 ± 1.9 h,4.38 ± 0.28 h,6.01 ± 2.3 h,4.03 ± 0.31 h,2.86 ± 0.38 h,8.23 h,4.14 ± 0.24 h,8.14 ± 1.9 h,5.07 ± 0.35 h,9.56 ± 0.61 h,5.87 ± 1.5 h
